Reference: patent US20220213211A1 (Memorial Sloan Kettering, published 2022)

Target: T1, biotinylated recombinant CD371 (soluble CD371) (Homo sapiens (Human), UniProt Q5QGZ9 65-265, biotinylated (site not stated))
T1 sequence: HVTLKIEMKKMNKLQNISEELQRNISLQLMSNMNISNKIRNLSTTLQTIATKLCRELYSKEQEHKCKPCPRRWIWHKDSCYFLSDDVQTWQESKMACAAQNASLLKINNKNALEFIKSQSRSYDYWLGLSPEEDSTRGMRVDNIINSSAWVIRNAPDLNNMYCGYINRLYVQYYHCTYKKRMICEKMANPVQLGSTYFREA
Test: biotinylated CD371 captured with streptavidin, soluble scFv as analyte
Text: For scFv affinity measurements, biotinylated CD371 was captured with streptavidin, and soluble scFv was used as analyte. […] Consistent with the flow cytometry results, weak binding of the 1B10 scFv in the VH-VL orientation was observed but a dissociation constant could not be calculated by any curve fit method.

Kd: 16 nM
koff: 0.00952 s⁻¹
kon: 599000 M⁻¹ s⁻¹
B1: B10 scFv in the VL-VH orientation (scFv)
scFv: DIVMTQSPDSLAVSLGERATINCKSSQSVLDSYNNENNLAWYQQKPGQPPKLLIYWASTRESGVPDRFSGSGSGTDFTLTISSLQAEDVAVYYCQQYTSEPITFGQGTKVEIKGGGGSGGGGSGGGSGGGGSEVQLLESGGGLVQPGGSLRLSCAASGFTFSDYQMSWVRQAPGKGLEWVSGIQGGGGSTYYADSVKGRFTISRDNSKNTLYLQMNSLRAEDTAVYYCAREMWRGDYYSGMDVWGQGTTVTVSS
notes: also called 1B10 scFv VL-VH; VL-VH scFv
